The values below come from patent publication US20140186370A1.

This assay has as its target vaccinia virus B5R 6xHis protein (baculovirus-expressed soluble extracellular domain) (vaccinia virus).

For the substance Hum IgG1 isotype control (antibody), the % inhibition amounted to 0%.

The term % inhibition denotes how much of the control response was suppressed.
